Test results from US20220306762A1.

Columns and labels:
[1] = target: Human CD38 on transiently transfected Expi293 cells (Origene SC321273) (human) (UniProt P28907); assay: flow cytometry, 10 ug/ml scFv-Fc, transfected Expi293 cells
[2] = target: Murine CD38 on transiently transfected Expi293 cells (Origene MC208001) (murine) (UniProt P56528); assay: as above
[3] = target: His-tagged human CD38 (ACRO Biosystems CD8-H5224) (human) (UniProt P28907); assay: ELISA, 1 ug/ml scFv-Fc, coated His-tagged CD38
[4] = target: His-tagged mouse CD38 (ACRO Biosystems CD8-M5223) (mouse) (UniProt P56528); assay: ELISA, 1 ug/ml scFv-Fc, coated His-tagged CD38
[5] = target: His-tagged cynomolgus monkey CD38 (ACRO Biosystems, CD8-05223 [sic]) (cynomolgus monkey) (UniProt Q5VAN0); assay: ELISA, 1 ug/ml scFv-Fc, coated His-tagged CD38

| Binder | FACS percent gated [1] | FACS percent gated [2] | ELISA signal [3] | ELISA signal [4] | ELISA signal [5] |
| --- | --- | --- | --- | --- | --- |
| 40769p2.1.E5 scFv-Fc (scFv, part only; not given: Linker, domain order, Fc, V domains shown, not shown: another chain or arm of the molecule; a dimerising Fc or GST; small tags and cut ends) VH: EVQLLESGGGLVQPGGSLRLSCTASAHIFKYNWMSWVRQAPGKGLEWVSSINSDGTITYYTDSVKGRFTISRDNSKNTLYLQMNSLRAEDTAVYYCAKDNWNDYAIDVWGQGTTVTVSS VL: QSVLTQPPSASGTPGQRVTISCSGSRSDIRNNYVSWYQQLPGTAPKLLIYSNGQRPSGVPDRFSGSKSGTSASLAISGLQSEDEADYYCAIWDDSLNAWVFGGGTKLTVL | 76.3% | 3.13% | 1.96 | 0.045 | 2.1 |
| 40769p2.1.E8 scFv-Fc (scFv, part only; not given: Linker, domain order, Fc, V domains shown, not shown: another chain or arm of the molecule; a dimerising Fc or GST; small tags and cut ends) VH: EVQLLESGGGLVQPGGSLRLSCTGFGFTFTDARMSWVRQAPGKGLEWVADISSYGDNTYYADSVKGRFTISRDNSANTLYVQMNSLRAEDTAVYYCAKRMEREVMTIKLDYHAMDVWGQGTTVTVSS VL: QSVLTQTPSVSGTPGQRVTISCSGVFNIRNYVSWYQQLPGTAPKLLIFKDDQRPSGVPDRFSGSRSGTSASLAISGLQSEDEADYYCAAWDIFLNVWVFGGGTKLTVL | 75.7% | 1.99% | 1.79 | 0.046 | 2.16 |
| 40769p2.1.C1 scFv-Fc (scFv, part only; not given: Linker, domain order, Fc, V domains shown, not shown: another chain or arm of the molecule; a dimerising Fc or GST; small tags and cut ends) VH: EVQLLESGGGLVQPGGSLRLSCAASGFSFSDYWMNWVRQAPGKGLEWVSTISSGGNMIYYADSVKGRFTISRDNSKNTLYLRMNSLRAEDTAVYYCAKDNWNDYYGMDVWGQGTTVTVSS VL: QSVLTQPPSASGTPGQRVTISCSGSSSNIRDNYVYWYQQVPGTAPKLLIYKDDQRPSGVPDRFSGSKSGSSASLAISGLQSEDEADYYCATWDGSLNARVFGGGTKLTVL | 74.9% |  | 2.42 | 0.048 | 2.35 |
| 40769p2.1.E1 scFv-Fc (scFv, part only; not given: Linker, domain order, Fc, V domains shown, not shown: another chain or arm of the molecule; a dimerising Fc or GST; small tags and cut ends) VH: EVQLLESGGGLIQPGGSLRLSCTASGFDFSSYGMHWVRQAPGKGLEWVAIISDSGGTTYYGDSVKGRFTISRDNSKSTLYLQMNSLRAEDTALYYCASYIMDVWGQGTTVTVSS VL: QSVLTQPPSASGTPEQRVTISCSGSNSNVGDNAVYWYQQLPGTAPKLLFYGTNRRPSGVPDRFSGSKSGTSASLAISGLQSEDEADYYCAAWDDSLNAWVFGGGTKLTVL | 75.4% | 23.7% | 2.04 | 1.53 | 2.04 |
| 40769p2.1.G4 scFv-Fc (scFv, part only; not given: Linker, domain order, Fc, V domains shown, not shown: another chain or arm of the molecule; a dimerising Fc or GST; small tags and cut ends) VH: EVQLLESGGGLVQPGGSLRLSCAASGFTFTSHDMNWVRQAPGKGLEWVSTITTGGNTYYADSVKGRFTISRDNSKNTLYLQMTSLRAEDTAVYYCTKHYSMDVWGQGTTVTVSS VL: QSVLTQPPSASGTPGQRVTISCSGSTSNVVFNAVYWYQQLPGTAPKLLFYGKSQRPSGVPDRFSGSKSGTSASLAISGLQSEDEADYYCAAWDDTLNGWVFGGGTKLTVL | 77% | 42.4% | 1.81 | 2.1 | 2.31 |

The remaining lines, values ahead:

| FACS percent gated [1] | FACS percent gated [2] | ELISA signal [3] | ELISA signal [4] | ELISA signal [5] | Binder |
| --- | --- | --- | --- | --- | --- |
| 92.5% | 1.43% | 1.67 | 0.045 | 1.47 | 40769p2.2.H4 scFv-Fc (scFv, part only; not given: Linker, domain order, Fc, V domains shown, not shown: another chain or arm of the molecule; a dimerising Fc or GST; small tags and cut ends) VH: EVQLLESGGGLVQPGGSLRLSCAASGFDFSSYWMNWVRQAPGKGLEWVSTISSGGSIIYYADSVKGQFTISRDNSKNTLYLQMNSLRAEDTAVYYCAKDNWNDYYGMDVWGQGTTVTVSS VL: QSVPTQPPSASGTPGQRVTISCSGSSSNIRDNYVYWYQQVPGTAPKLLIYKDDQRPSGVPDRFSGSKSGTSASLAISGLQSEDEADYYCATWDGSLNARVFGGGTKLTVL |
| 92.1% | 1.46% | 1.7 | 0.044 | 1.46 | 40769p2.2.G3 scFv-Fc (scFv, part only; not given: Linker, domain order, Fc, V domains shown, not shown: another chain or arm of the molecule; a dimerising Fc or GST; small tags and cut ends) VH: EVQLLESGGGLVQPGGSLRLSCTASGITFSRFNMFWVRQAPGKGLEFVASIRDDGSWTYYADSVKGQFTISRDNSKNTLYLQMNSLRAEDTAVYYCAKDYSSKDFIYHYVMDVWGQGTTVTVSS VL: QSVLTQPPSASGTPGQRVTISCSGRNSNIGNNVVNWYQQLPGTAPKLLIYRNQERPSGVPDRFSGSKSGTSASLAISGLQSEDEADYYCASWDDSLNAWVFGRGTKLTVL |
| 77.1% | 22.9% | 2.01 | 1.37 | 2.29 | 40769p2.1.H12 scFv-Fc (scFv, part only; not given: Linker, domain order, Fc, V domains shown, not shown: another chain or arm of the molecule; a dimerising Fc or GST; small tags and cut ends) VH: EVQLLESGGGLIQPGGSLRLSCTASGFDFSSYGMHWVRQAPGKGLEWVGIISDSGGTTYYADSVKGRFTISRDNSKNTLYLQMNSLRAEDTALYYCASYIMDVWGQGITVTVSS VL: QSVLTQPPSASGTPGQRVTISCSGSNSNVGVNSVYWYQQLPGTAPKLLIYGSGRRPSGVPDRFSVSKSGTSASLAISGLQSEDEADYYCAAWDDGLNAWVFGGGTKLTVL |
|  |  |  | 0.044 |  | 40769p2.2.D3 scFv-Fc (scFv, V domains shown) VH: EVQLLESGGGLIQPGGSLRLSCTASGFDFSSYGMHWVRQAPGKGLEWVGIISDSGGTTYYADSVKGRFTISRDNSKNTLYLQMNSLRAEDTALYYCASYIMDVWGQGITVTVSS VL: QSVLTQPPSASGTPGQRVTISCSGSNSNVGVNSVYWYQQLPGTAPKLLIYGSGRRPSGVPDRFSVSKSGTSASLAISGLQSEDEADYYCAAWDGGLNAWVFGGGTKLTVL |
